Residue numbers refer to the chain shown, from its start. “Also recorded” adds a separate entry of the source.
B1: AB-009807: sibling of AB-008873; VH SEQ ID NO: 70, VL SEQ ID NO: 81 (antibody, V domains shown)
VH: QVQLQQWGAGLLKPSETLSLTCAVYGGSFNDYYWSWIRQPPGKGLEWIGEVNHSGSTSYNPSLKSRVTISVDTSKNQFSLKLSSVTAADTAVYYCAKPFRPHCTNGVCYSGDAFDIWGQGTMVTVSS
VL: SYVLTQPPSVSVAPGQTARITCGGNNIGSKNVHWYQQKPGQAPALVVYDDSDRPSGIPEQFSGSNSGNTATLTISRVEAGDEADYYCQVWDSSSDHLVFGGGTKLTVL
B2: AB-010671: VH SEQ ID NO: 624, VL SEQ ID NO: 689; H107TI; L29SY; L92SH relative to AB-010357 (antibody, V domains shown)
VH: QVQLQQWGAGLLKPSETLSLTCAVYGGSFSDYYWSWIRQPPGKGLEWIGEINHRGSINYNNYNPSLKSRVTISVDTSKNQFSLKLSSVTAADTAVYYCAKPLRPHCINGVCYSGDAFDIWGQGTMVTVAS
VL: B1 VL with S29Y, A44V, S92H, L97V

Tests used:
A549 cells [1] = experiment: ADCP with RAW264.7 mouse macrophage effector cells; assay type: cell-based, human
Procedure: For antibody-dependent cellular phagocytosis (ADCP), the cell membranes of target cells were labeled with green fluorescent membrane dye preceding opsonization with different concentrations of antibody at room temperature for 30 minutes. RAW264.7 mouse macrophage (effector) cells were then added at a 1:1 ratio with the target cells and co-cultured at 37° C. and 5% CO2 for 2 hours. After incubation, the cell mixture was dissociated with 2 mM ethylenediaminetetraacetic acid (EDTA, pH 7.4). The cell suspension was then washed several times in an isotonic salt solution and probed with a commercially available anti-CD11b antibody, conjugated with Allophycocyanin (APC). After a 30-minute incubation at 4° C. with this antibody, the cell suspension was washed again before being analyzed by flow cytometry.

A549 cells [2] = experiment: ADCC (KILR target cells, NK92 CD16 chimera effector cells); assay type: cell-based, human
Procedure: To detect Antibody-dependent cellular cytotoxicity (ADCC), KILR™-transfected target cells were opsonized with different concentrations of the antibody at room temperature for 20 minutes. Following, NK92 cells carrying a mouse extracellular-human intracellular CD16 chimera were added at a 5:1 ratio of effector to target cells. After a 4 h co-culture at 37° C. and 5% CO2, pre-mixed KILR™ detection reagent was added to each well at equal volume and allowed to incubate for 30 min at room temperature in the dark before reading luminescence on a pate reader. Cytotoxicity was calculated after background (spontaneous release) subtraction and expressed as percent of a maximum lysis control.

A549 cells [3] = experiment: Flow screen (in vitro) surface binding; parameters: species or system human; conditions: flow cytometry; comparisons are to AB-008873
Procedure: Surface binding of the antibodies to in vitro grown cell lines was assessed by flow cytometry. Tumor cells were detached from their culture plate using Versene and counted. Cells were staining in BSA-containing buffer with primary antibody for 30 minutes at 4° C. with shaking. Following, cells were washed and stained with secondary PE-labeled antibody for 30 minutes at 4° C. with shaking. Before analysis on an Intellicyt iQue3 scanner, cells were counterstained with DAPI. MedFI values from live, single cells was expressed as fold over isotype control.

PC3 tumors = experiment: In vivo PC3 model in NPG mice, ZLA-conjugated EphA2 antibodies; parameters: species or system mouse; conditions: ZLA conjugates in both IgG1 and IgG4 formats; 3 and 6 mg/kg; ~150 mm^3 and ~400 mm^3 PC3 tumors
Procedure: This experiment assessed the activity of ZLA-Conjugated EphA2 antibodies AB-010671-ZLA and AB-010699-ZLA in vivo. 2×10^6 PC3 cells were inoculated in 0.2 mL of 1:1 DPBS with Matrigel subcutaneously into each of the male NPG mice. Tumors were allowed to establish and then randomized at an average size of 150 mm^3 with 10 mice per treatment cohort. Treatment started at the day of randomization (Day 0) with weekly intravenous injections of the conjugates at the indicated doses. Body weight as well as tumor sizes were monitored twice weekly. Study was ended at day 35 after 5 doses. At endpoint, mice were euthanized, and tumors excised and weighted.
The assay was repeated with AB-010699 and AB-010671 in both IgG1 and IgG4 formats at 1, 3, and 6 mg/kg, AB-010016, and vehicle and isotype controls in mice carrying PC3 tumor cells measuring ˜150 mm^3 or ˜400 mm^3. […] FIG. 60B and FIG. 61B show the body weight of the mice over the course of the studies.

[4] = tested on: SKOV3, MDAMB231, and PC3 tumor cells
Procedure: This experiment tested the cytotoxicity of antibody-drug conjugates (“conjugates”) each comprising an EphA2 antibody directly conjugated via a lysine to a ZymeLink™ Auristatin (ZLA) payload having structure (1) as disclosed above on SKOV3, MDAMB231, and PC3 tumor cells. […] The average drug to antibody ratio (DAR) for each molecule ranges from 2.9 and 3.6 as determined by Mass Spectrometry. […] 2,500 cells were added to each well of a 96 well plate and incubated with different concentrations of directly conjugated primary antibody for 15 min at room temperature. Cells were then incubated for 72 h at 37° C. and 5% CO2. At the end of the incubation period, 100 μl CellTiter-Glo® was added to each well and allowed to incubate for 5-10 min at room temperature before reading luminescence in a BMG ClarioSTAR plate reader. Data were then normalized to a maximum lysis control and plotted using graph pad prism software.

Row | EC50 (A549 cells [2]; A549 tumor cells) [pM] | Molecule | ADCP activity on A549 cells (in words) (A549 cells [1]) | ADCC activity on A549 cells (in words) (A549 cells [2]; comparisons are to AB-008873 or parent) | binding to A549 cells (in words) (A549 cells [3]) | anti-tumor activity, repeat study (PC3 tumors) | cytotoxic activity of ZLA conjugates (in words) [4] | ADCC - dAct rel. parent, Trial 1 (A549 cells [2]; A549 tumor cells, Trial 1, relative to parent antibody) [%] | ADCC - dAct rel. parent, Trial 2 (A549 cells [2]; A549 tumor cells, Trial 2, relative to parent antibody) [%]
1 |  | B1 | less than that of AB-008873; also recorded: some ADCP activity | less than that of AB-008873; also recorded: little binding and ADCC activity | less than that of AB-008873; also recorded: little binding and ADCC activity |  |  |  | 
2 | ~6 | B2 |  |  |  | anti-tumor activity | higher potency but similar maximum cytotoxicity compared to AB-010361-ZLA and AB-010361-IgG4-ZLA | 157.1 | 106.7

Source: patent US20250276077A1, “EPHA2 ANTIBODIES” (Immunome, Inc., priority 2022, published 2025)
